{
  "source": "the supplement of paper PMC12455559",
  "data": [
    {"test": "purified protein yield per well (BCA); higher = higher soluble expression", "method_in_brief": "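Purified protein yield per well is reported, as measured by the Pierce Rapid Gold BCA kit. The enzymes came from E. coli C41(DE3) autoinduction cultures of 2 mL with 100 µg/mL kanamycin, held at 37 °C for 2 h and 18 °C for 40 h, then lysed and purified on Ni-charged magnetic beads with SUMO protease release. The detection threshold is 25 ug (0.1 mg/mL), and lower values are under it.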", "units": {"purified protein yield per well": "µg"}, "values": [
      {"sequence": "IENGPAPTLADLQKDGPYAVTSQVVKGSGFGGGTVYSPNTAGKYALVAVCPGFVSPQSSMTDMSKRLATHGFVVVAITTNTLFDFPSSRATQLLAALKTVAALNTGAAAGKIDITRQVVSGWSMGGGGTLEAAGVTPGLTAAVAFAPWDTATTKMKTLTVPVAIFGGTNDTIAPVSGHSQKFYDIIPATTKKMLAVITGADHFFPTKASEPTSYSNISWVKRFADGDTRYSQFLNGQDAALASFTSTGPF [ESM138]", "purified protein yield per well": "< 25"},
      {"sequence": "YILASGFVGQLVAQTPSLEALGRQGPYQVAWYTQLPSVPEFSGATLYFPANKAQDFGGVVISPGFFERQENISWWGNYLASHGFAVITFDTNELRDLPPLRADALLATIDLLRGENSRQGSAVRGKILEDSMAVMGHSMGGAAALLLANENSNEIKAAIPFNAGGLRNANFSAVAVPTLVIAGEIDRLAPVNEHAWSHYQTLT [TEP088]", "purified protein yield per well": "< 25"},
      {"sequence": "ANPYERGPAPTLSSIQATTGPFATATTTVPSGNGFGGGTIYYPTDTSQGTFAAIAMSPGFFNTQSAISWYGKRIASQGFVFLTINTNTILDFPDSRATQLLAALDYLTQSSPVSSLIDSSRLGVMGYSMGGGGTLKASKTRPSLEAAVGVAPWHSTKNWSTNTVPSMMLGMQNDTVAPASSHAIPFYNSLPASIHKVYAEVRGASHSTPTSANTPIAQYSIAFLKQELDNDTRYTQFLCPAPAVGGTNPLSAYSSTCPF [DP067]", "purified protein yield per well": "< 25"},
      {"sequence": "MVSGTATATPAATAAHPVRAAANPYERGPAPTVASVEAPLGPYAVSRITVARSSVSGFGGGTVHYPTSTADGTFGAVAVSPGFTGTQSSIAWYGPRLASQGFVVLTIDTLTGLDQPASRGRQLLAALDYLTGESAVRGRIDRTRLGVMGHSMGGGGSLEAAKSRTSLKAAIPLTGWNLDTTWPEVRTPTLVVGADGDTVAPVAAHSEPFYASLPGTLDKAYLELKGAVHRTPITANTTIAKYSVSWLKRFIDNDTRYERFLCPLPAPGPTIAEYRGNCPHT [TEP118]", "purified protein yield per well": "< 25"},
      {"sequence": "NNPAPTPTPTPTPGTPSAYQRGPAPSVSFLQASRGDLSVRTSRVSSFTSGFGGGTIHYPTGTTGTMAAIVVIPGYVSAESSIEWWGPKLASYGFVVMTIDTNSGFDQPPSRARQINSALDYLVSQNSSSRSPVRGMIDTNRLGVVGWSMGGGGTLRVAEEGRIKAAIPLAPWDTTNFRDNYTPTLIFACQSDVIAPVNQHASPFYNQIPSSTDKAFVELSGGSHYCGNGGGVYNNVLGRLGVSWMKRHLDQDTRYDQFLCGPNHESDSRISEYRGNCSN [ESM126]", "purified protein yield per well": "< 25"},
      {"sequence": "ADNPYERGPNPTESSIEATRGHYSVSEESVSSLAPGFGGGTIYYPTTRTDGTFGAVAVVPGYTASESSIEWLGARVASQGFVVFTIDTTTRLDQPAQRGDQLLAALDYLTERSDVADRVDPSRLAVMGHSMGGGGTLEAAKDRPSLKAIIPMTPWNLDKTWGDVEVPMLDFGAEYDSIASPASHAKPFYNTHGGEKMYIELNSAGHFAPNSSNTTIAKYSISWLKRWVDNDTRYTQFLCPTPTSWLYIEESASTCGF [TEP142]", "purified protein yield per well": "< 25"},
      {"sequence": "MGPWLASFGFVVLGIETNSRTDGADARATQLLAGLDYLTRTSPVRSRVDPNRLSVMGHSAGGAGTLLAALRRPSLRTAVGLAPGTPGNNLNMSTTQVPTLLLSGQNDGTVTPSYVQGIYNTLPAGVEHAWAELAGNDHLSFTRSNPTEMRLLIPWLKIFLDYDTRYTQFLCPLSNSTGVSRYSSTCPLVPPGGPTVPPTTTPPPTTPPPTTPPTTPPPTTPPPTTPPPGTACTATYRTIGSWSGGFQGEVTVTAGSAAVDGWTARWQLASGQGISQVWNGTLSTSGTTVTVRNADYNGTLAPGTSTTFGFLGTGTPNSPSPTCTSP [ESM008]", "purified protein yield per well": "< 25"},
      {"sequence": "VPAPPAVERGPAPTPASVTAAVGPHAVITAAVRRADVAGFGGGTLLAPADAAGGPYGVVAVAPGFREGAATLAWLGPRLASRGFVVLLVDTLDPDEFPTARAAELLAAIDWVVADSPVRDRADPARAAVLGHSMGGGAALEAALARPGLRAAIPMAPWDPAADFAGVRVPTLVLAAEDDTIAPPAEHAERFYASLTAPARAYALLPGRDHDFSNAPDDVTAGLVLSWLARFVDGDTRYTRLLCRGTLSAAVASQQDTCPAP [TEP074]", "purified protein yield per well": "< 25"},
      {"sequence": "MSATRGTFATAQLSVPAGNGFGGGVIYYPTDTSQGTFGGVAIVPGYSALFANEEAWMGPWLASFGFVVIGIETNSRTDGADARATQLLAALDYLTQRSSVRDRVDSSRLSVVGHSAGGAGVILATGQRPSLKAAVGLAPGSPTGNLSLANDRVPMMFISGQRDTTVTQSYLNGLYTTLPASTPSAWVEITGVDHLFATRANTTEMRTLIPWLKIFVDNDTRYTQFLCPLMDSSNISMYRNKCPYVPPGGPSPSPSPSPSPSPSPSPSPSPSPSPSPSPSPSPSPSPSPSPSAGACTASYRTTNSWPGGHQGEVTVTAGGSAISGWTVRWTLGSGQTVSQVWNGTLSVSGSTVTVTNASYNGSLPASGSTTFGFLGTGTASAPSLTCTSRP [ESM002]", "purified protein yield per well": "< 25"},
      {"sequence": "AQQTILQESFNSSLGSFTSAGSVSVGSSGALMRGSAYSTDGRITSAAVSTQGLTNIVLSFTSATSGLDLGEAAIVSYSTNGSSYTTVSSERYATGSFTFNLGTAAANQSQLFLRFAIDASSTYETYAVDNIILTGDGEGGGTTCTTCIGPDPTVAALEAARGPFNTSSFGLSSWSVSGFGGGDIFYPTNAPAGPLAAIAICPGFLGTSETVDWWGPRLASHGFVVIVMDPNSVFDQPAQRATQLMACLDELEDQNNDSGSPIYGMVDSNRVGLMGHSMGGGGTLIATEDNPSVIKAAIPMAPWNMLSSNFSDITTPTLVIACEADLIAPVAQHARPFYDSIPSTVPKAFLEINNGDHLAVMNGDVFEDMLGKYGVAWMKVFLDNDQRYMQFLCGPDHESDWDISDYRSSCPY [DP024]", "purified protein yield per well": "< 25"},
      {"sequence": "CGLCKAQTCDTLTLDSIYDPGAYSFATLLESDGIRNGPDYAGATIYYPTNGIPPYPAIAICPGHSTFEYTIQAWGPFYASHGIVTITIGTNSIYDYPDARKNAILDALETVRQENVRSGSPLFGYLDLSRLAVSGWSMGGGGAQLAAAADTTIKAVVGLCPWLESWRTAADLNHPVPTLILSGQIDAIAPPYYHADVHYGYIP [TEP133]", "purified protein yield per well": "< 25"},
      {"sequence": "CDSILFQSIASPGPYNVLSIDESDGIRNGQDYNGATIFYPEGNLYNLPSIVFVPGYSNTQFTIQNWGLFLASYGIVTMTIGTNTLIDSHIQRKDALLDALITIKQENVRSSSPLYNSLDTLKLALGGFSKGGGGAQLAASIGQNIKAVIALYPWLENISAVDLNHDVPVLIVSGNLDIIAPPSLHADVHYMYTPETTKKLKYEIAFATHDPLIGPNAGFGEVGKKTLSWLQTFLLGDSCFCPYLLDTPSNASIYMSNLNCTEISTNTYNLESNQEKKILKIIDIFGREVRPKKNMILFYIYNDQSVKKIIIK [TEP139]", "purified protein yield per well": "< 25"},
      {"sequence": "CVFPPAPPPPGSGYTITTVAAGNGFGGGTIYLPEGVTGRRGAVAVVPGFTGTQSTVAWYGPLLAKEGYVVFTIDTNSGWDSPQARGTQLLAALDYLTTQSSAASRVDPARLAVMGHSMGGGGSLEAAKARPSLKAAIPLAGWNSVTNFSTVTVPTLVVA [TEP070]", "purified protein yield per well": "< 25"},
      {"sequence": "CESRRGPDPTRVSVESTAGPFAIATTTVSSGNGFGGGTIYYPTSTAEGRFGGVAIAPGFTKTQSSIAWYGPRLASQGFVVFTIDTNSGLDFPASRGDQLLAALDFLTSSSSVKSRVDANRLAVMGWSMGGGGALEAAKDRPALKAAIPLAGWNTTTEWSSVTVPTLVVACENDSTAPVASHSRPFYDSLTSAQERAFVEMAGAPHGCVTSPTTAVARWTISWLKRFVDGDTRYTQFLCPPPADSTVSTQLTSCPM [TEP177]", "purified protein yield per well": "< 25"},
      {"sequence": "QSTTPTSSALNATAGPLAVSTSTVTLASGFGGGTIYYPTTAGSYGLIALCPGFTATETSLAWLARRLASWGFVVVNMNTTTTMDQPASRATQLMAALKYALNSSSSAVRARIDPSRLAVAGHSMGGGGTLIAARDNPTLKAGYPLTPWNSSTNFSGVTVPTMIIGSDGDTVAPVAQHARPFYASLPAATFKAYGELNNATHFTPNSTSTPIGRYGVAWMKRFLDGDTRYSTFLCGSEHAAYATSLVFDRYNQNCPY [ESM187]", "purified protein yield per well": "< 25"},
      {"sequence": "STPVHHAAASYTSTAAHHHAPFAVRTTVVPKTAVTTFGGGVIYTPQDTGKPVLGAVVITPGFTDTNANEKEMAELVASQGFVAFAIDTLTTDDLPDLRATQMLAAADYLTGQSAVRSQVSKDDVGLIGYSFGGGGAMQAAQSRPSIKAAIGLMPFDFPPATDPDAMYPAYPHMTTPTLVITGQKDDVADPKDFGKPAYDSIPAGTPKQYLELTGLGHAAGQHVPVATIRTAVTAFLKRYLDGNSAYAKYICPAPKVGGPISASLSSCPKG [TEP069]", "purified protein yield per well": 25.8},
      {"sequence": "DGPYDVDWIYESDGLRNGPYYLGATLYYPINAPEPLASIVIVPGWGMPESTMQDWGPFFASWGIIAMTIGTNNPSTDWPEDRAEALLDAIETIKQENDRIDSPVNGRIDLNSFAVSGWSMGGGGAQLAAVMEPTLKAVIALCPWLDNWVLEPDDLNHSVPTLIFSGQYDVNAPPYLHANIHYNYTPSTTDKLLFEVEYGDHYVANGPNGGSGYVGDKALEWIN [TEP053]", "purified protein yield per well": "< 25"},
      {"sequence": "AAPPVPQVAASPYERGPAPSEESVTAAEGPFEFETIDVPAGSGDGFNQGTIYAPTDRSQGTFGAIAVSPGFVSPEALVSWYGPRLASQGFVVMTIETNTVLDLPAMRGDQLLAALDYLTGAASPVADRVDPDRLAVMGHSMGGGGTLEAASRRTDLRAAVPLAPWNLTSDWSAVRTPTMILGAQNDFIAANGLHSEPFYEGLTSAPEKAYAELENTGHMSFNTPNDTIAKYTIAWMKRYVDDDARYERFLCPAPSDDPALIEYRDTCPGG [TEP149]", "purified protein yield per well": "< 25"},
      {"sequence": "GASAPAANPYERGPAPTEQALLAPLGSFTYSTVVVPRSQVTGFGGGTIYYPDDTSQGTYGGVVAVPGFVSPEGAVAWLGPHMASRGFVVFTIATTSPFDQPTARGKQLLAALDHLTQRTPDAVRKRLDPARLAVTGHSMGGGGALYASGARPGIKAAIPLAPYNQDKTWNEVATPTLVVGGSADQIASVDKHARPFYNSLTGARDRGLLNVAAADHGDFTQENSITGRYAAAWLKRFVDEDTRYDQYLCPATGGPGVTEYSASCPLS [TEP151]", "purified protein yield per well": "< 25"},
      {"sequence": "AGEQEYRRGPDPTLASLQAQEGPFAYATVTVPDQATYDGGTIYYPTDTSQGTFGAIAISPGYTGYQNSIAWYGRLLASNGFVVFTIDVENTNYDQPNARGEQLLDALDYLTQTSSVRSRIDPNRLAVAGHSMGGGGALRASYLRPSLQASIPLTPYHTWKNWSWVTVPTMIFGAENDTVTEVEDHAEPFYNTLTSAQERFYIELNAPADHLTPTSYDPTIGQYPRAFAKRYIDTDTRYEQFLCPPPAPSSAVEESRRACLGS [DP031]", "purified protein yield per well": "< 25"}
    ]}
  ]
}
